Key:
Jak2 = Jak2 (UniProt O60674); assay: phosphorylation enrichment, bacterial display (enrichment ratio); higher = better substrate or ligand; peptides without Tyr show the background
Hck = Hck (UniProt P08631); assay: as above
EPHB1 = EPHB1 (UniProt P54762); assay: as above
c-Src = assay: as above
MERTK = MERTK (UniProt Q12866); assay: as above
AncSZ = assay: as above
Fer (mouse) = assay: as above
FGFR1 = FGFR1 (UniProt P11362); assay: as above
EPHB2 = EPHB2 (UniProt P29323); assay: as above
Fyn = Fyn (UniProt P06241); assay: as above
c-Abl (mouse) = assay: as above
Fes = Fes (UniProt P07332); assay: as above
FGFR3 = FGFR3 (UniProt P22607); assay: as above
Grb2 SH2 = Grb2 SH2 (UniProt P62993); assay: SH2 binding enrichment of the phosphorylated peptide, bacterial display (enrichment ratio); higher = better substrate or ligand; peptides without Tyr show the background
c-Src SH2 = assay: as above
SHP2-C SH2 = assay: as above
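For SH2 binding enrichment of the phosphorylated peptide, bacterial display in this document: peptide library displayed on the E. coli surface as eCPX fusions, selected cells deep-sequenced, score is each peptide's frequency after selection divided by its frequency in the input.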
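For phosphorylation enrichment, bacterial display in this document: 11-residue human phosphosite peptides and single-mutation variants displayed on the E. coli surface, counted by deep sequencing, each peptide's frequency after selection divided by its frequency in the unselected input library; frequency after pTyr selection over input frequency; kinase dosed for 20-30% of maximal phosphorylation in three min.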

FGFR3, sequence (P22607 whole entry, looked up): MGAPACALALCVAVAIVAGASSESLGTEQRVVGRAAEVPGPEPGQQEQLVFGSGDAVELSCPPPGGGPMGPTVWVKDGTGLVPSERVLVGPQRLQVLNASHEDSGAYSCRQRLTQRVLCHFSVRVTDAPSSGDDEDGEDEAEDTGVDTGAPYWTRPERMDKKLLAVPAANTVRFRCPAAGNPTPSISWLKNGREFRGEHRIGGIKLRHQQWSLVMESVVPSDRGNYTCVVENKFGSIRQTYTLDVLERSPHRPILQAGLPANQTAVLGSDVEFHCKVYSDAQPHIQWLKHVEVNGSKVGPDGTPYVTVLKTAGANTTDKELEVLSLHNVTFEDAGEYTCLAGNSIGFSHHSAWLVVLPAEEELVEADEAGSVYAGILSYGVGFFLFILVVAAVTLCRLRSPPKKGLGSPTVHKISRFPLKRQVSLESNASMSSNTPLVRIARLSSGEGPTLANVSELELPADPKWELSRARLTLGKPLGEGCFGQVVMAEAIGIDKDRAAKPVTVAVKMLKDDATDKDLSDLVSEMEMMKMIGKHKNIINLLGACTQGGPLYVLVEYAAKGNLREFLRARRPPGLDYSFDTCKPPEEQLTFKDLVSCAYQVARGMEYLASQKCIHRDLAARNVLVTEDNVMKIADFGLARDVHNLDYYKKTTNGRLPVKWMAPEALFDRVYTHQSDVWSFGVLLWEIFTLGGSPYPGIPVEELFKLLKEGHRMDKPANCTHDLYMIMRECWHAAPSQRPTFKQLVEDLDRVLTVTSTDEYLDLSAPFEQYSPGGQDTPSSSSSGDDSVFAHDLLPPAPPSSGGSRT
Fyn, sequence (P06241 whole entry, looked up): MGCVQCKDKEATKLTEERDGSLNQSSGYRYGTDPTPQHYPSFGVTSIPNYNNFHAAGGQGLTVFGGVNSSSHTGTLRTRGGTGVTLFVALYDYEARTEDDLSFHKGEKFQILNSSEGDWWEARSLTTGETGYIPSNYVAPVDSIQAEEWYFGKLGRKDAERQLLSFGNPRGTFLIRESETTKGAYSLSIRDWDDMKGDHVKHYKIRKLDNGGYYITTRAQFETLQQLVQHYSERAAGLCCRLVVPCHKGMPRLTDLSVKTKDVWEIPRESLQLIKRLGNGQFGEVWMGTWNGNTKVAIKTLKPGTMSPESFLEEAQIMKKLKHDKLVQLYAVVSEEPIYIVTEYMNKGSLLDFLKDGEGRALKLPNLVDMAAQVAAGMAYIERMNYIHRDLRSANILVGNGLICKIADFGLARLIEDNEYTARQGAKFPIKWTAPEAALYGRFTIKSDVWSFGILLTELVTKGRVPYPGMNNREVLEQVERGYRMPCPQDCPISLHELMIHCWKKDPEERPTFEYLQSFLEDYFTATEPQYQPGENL
EPHB2, sequence (P29323 whole entry, looked up): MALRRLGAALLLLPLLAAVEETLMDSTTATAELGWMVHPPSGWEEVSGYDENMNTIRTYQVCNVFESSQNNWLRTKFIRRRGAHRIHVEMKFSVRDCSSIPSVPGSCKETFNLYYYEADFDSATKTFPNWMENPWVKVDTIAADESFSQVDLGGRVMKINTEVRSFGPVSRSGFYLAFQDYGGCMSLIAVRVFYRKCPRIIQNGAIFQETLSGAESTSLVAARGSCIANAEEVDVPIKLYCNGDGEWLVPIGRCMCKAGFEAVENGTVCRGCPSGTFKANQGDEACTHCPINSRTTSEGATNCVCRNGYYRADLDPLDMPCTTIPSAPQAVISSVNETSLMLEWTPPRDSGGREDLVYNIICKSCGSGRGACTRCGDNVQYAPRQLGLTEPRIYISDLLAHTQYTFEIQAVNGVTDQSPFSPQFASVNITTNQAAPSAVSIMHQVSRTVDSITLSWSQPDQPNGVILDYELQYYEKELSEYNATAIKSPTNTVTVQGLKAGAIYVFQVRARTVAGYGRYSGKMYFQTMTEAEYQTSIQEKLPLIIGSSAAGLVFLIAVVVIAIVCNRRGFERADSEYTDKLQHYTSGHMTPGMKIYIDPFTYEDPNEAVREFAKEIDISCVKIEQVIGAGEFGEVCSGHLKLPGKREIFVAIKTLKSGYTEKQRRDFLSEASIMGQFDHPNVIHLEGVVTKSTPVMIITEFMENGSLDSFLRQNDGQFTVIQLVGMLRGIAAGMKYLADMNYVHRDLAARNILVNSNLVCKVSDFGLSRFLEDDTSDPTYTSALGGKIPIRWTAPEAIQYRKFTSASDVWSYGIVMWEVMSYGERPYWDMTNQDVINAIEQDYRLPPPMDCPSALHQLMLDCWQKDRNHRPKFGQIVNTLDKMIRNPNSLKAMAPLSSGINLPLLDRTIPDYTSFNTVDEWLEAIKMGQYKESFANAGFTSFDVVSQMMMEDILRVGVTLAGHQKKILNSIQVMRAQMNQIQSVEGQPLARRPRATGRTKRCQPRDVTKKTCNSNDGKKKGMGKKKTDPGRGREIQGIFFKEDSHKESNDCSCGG
Fes, sequence (P07332 whole entry, looked up): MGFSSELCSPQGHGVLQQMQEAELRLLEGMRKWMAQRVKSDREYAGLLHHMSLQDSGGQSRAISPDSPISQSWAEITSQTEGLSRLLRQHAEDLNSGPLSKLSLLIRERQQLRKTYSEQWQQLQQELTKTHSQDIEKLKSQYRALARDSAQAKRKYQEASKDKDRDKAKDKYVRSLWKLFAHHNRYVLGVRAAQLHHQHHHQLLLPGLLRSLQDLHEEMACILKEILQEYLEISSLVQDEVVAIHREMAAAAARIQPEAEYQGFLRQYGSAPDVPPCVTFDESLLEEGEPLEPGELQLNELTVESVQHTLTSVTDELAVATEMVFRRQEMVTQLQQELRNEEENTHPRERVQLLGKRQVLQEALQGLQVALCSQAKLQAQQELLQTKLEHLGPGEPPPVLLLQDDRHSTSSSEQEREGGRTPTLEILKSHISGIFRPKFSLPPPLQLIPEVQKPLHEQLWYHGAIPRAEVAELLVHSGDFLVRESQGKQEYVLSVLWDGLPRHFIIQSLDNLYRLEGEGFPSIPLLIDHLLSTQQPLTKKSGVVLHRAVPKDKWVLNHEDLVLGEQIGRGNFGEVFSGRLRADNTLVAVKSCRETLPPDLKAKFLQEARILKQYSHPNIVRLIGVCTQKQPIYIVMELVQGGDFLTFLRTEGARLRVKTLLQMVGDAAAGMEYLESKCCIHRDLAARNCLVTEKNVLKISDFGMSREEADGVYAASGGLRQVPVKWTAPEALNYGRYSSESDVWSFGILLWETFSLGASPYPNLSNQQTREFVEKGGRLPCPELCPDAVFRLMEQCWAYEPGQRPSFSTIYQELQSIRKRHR
EPHB1, sequence (P54762 whole entry, looked up): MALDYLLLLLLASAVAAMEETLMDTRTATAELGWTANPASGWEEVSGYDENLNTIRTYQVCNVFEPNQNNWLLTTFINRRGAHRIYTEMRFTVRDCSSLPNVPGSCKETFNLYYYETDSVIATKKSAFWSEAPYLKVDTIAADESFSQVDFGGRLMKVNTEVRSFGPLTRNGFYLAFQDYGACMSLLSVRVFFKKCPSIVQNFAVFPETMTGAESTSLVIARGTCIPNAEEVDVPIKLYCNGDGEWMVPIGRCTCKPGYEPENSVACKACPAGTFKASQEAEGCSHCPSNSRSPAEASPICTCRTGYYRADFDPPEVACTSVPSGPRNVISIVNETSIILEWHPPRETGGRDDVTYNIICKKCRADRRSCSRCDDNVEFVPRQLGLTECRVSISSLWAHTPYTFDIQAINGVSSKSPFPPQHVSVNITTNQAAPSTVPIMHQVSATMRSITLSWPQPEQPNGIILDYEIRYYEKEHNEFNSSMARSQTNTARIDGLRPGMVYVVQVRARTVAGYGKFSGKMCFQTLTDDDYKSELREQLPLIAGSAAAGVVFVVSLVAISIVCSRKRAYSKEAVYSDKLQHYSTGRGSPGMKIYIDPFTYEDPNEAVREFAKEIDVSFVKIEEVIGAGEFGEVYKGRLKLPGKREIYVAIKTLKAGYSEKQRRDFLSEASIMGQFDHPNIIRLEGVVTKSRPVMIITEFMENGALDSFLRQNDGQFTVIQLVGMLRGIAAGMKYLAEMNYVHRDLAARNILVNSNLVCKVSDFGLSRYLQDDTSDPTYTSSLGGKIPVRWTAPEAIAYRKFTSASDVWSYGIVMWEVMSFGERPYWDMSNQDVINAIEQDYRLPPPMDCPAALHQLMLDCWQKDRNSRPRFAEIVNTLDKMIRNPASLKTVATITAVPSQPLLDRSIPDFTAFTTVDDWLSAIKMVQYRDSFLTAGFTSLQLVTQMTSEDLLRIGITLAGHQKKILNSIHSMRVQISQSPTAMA
FGFR1, sequence (P11362 whole entry, looked up): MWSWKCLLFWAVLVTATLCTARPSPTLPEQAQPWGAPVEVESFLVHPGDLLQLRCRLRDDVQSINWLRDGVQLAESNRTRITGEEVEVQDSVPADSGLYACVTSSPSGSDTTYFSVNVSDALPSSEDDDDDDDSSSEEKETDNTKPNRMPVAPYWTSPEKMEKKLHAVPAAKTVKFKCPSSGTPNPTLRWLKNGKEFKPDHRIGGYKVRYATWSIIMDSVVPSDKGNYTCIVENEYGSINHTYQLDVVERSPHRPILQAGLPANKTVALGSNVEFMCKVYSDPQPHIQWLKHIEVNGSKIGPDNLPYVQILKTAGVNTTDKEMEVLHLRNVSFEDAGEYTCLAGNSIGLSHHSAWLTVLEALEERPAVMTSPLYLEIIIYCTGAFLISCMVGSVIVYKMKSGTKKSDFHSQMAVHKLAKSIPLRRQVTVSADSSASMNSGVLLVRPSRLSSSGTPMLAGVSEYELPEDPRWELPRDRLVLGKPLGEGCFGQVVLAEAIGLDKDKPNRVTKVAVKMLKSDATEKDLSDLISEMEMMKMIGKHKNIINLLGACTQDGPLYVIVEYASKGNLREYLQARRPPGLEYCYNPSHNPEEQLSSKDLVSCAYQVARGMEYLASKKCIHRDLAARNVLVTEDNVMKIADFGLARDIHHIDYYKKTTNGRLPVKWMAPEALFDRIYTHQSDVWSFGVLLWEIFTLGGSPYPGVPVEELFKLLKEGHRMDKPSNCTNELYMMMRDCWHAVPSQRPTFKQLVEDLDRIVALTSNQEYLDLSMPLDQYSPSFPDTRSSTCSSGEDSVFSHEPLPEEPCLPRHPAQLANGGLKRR

Sequence	SH2 binding enrichment (Grb2 SH2)	SH2 binding enrichment (c-Src SH2)	SH2 binding enrichment (SHP2-C SH2)	phosphorylation enrichment (Jak2)	phosphorylation enrichment (Hck)	phosphorylation enrichment (EPHB1)	phosphorylation enrichment (c-Src)	phosphorylation enrichment (MERTK)	phosphorylation enrichment (AncSZ)	phosphorylation enrichment (Fer (mouse))	phosphorylation enrichment (FGFR1)	phosphorylation enrichment (EPHB2)	phosphorylation enrichment (Fyn)	phosphorylation enrichment (c-Abl (mouse))	phosphorylation enrichment (Fes)	phosphorylation enrichment (FGFR3)
VLTSKYLGGGG [HBA1_Y141_R142L]	0.824	0.456	0.695	0.444	0.32	0.292	0.334	0.347	0.382	0.264	0.448	0.326	0.275	0.375	0.461	0.308
RLLVVYPGTQR [HBB_Y36_W38G]	1.48	1.05	1.27	0.836	0.526	0.539	0.48	0.512	0.918	0.42	0.544	0.683	0.484	0.739	0.984	0.703
KNEIFYQCPDQ [FBXO3_Y223_V221I]	0.774	0.746	0.676	1.07	0.998	0.688	0.744	2.55	2.23	4.5	0.928	1.07	0.748	6.62	1.36	1.02
IMITGYLLLFR [INSR_Y87_D86G]	2.37	0.899	1.83	1.02	0.57	0.521	0.419	0.668	1.19	0.593	0.721	0.547	0.63	1.13	1.4	0.866
SNTFLYQLVFD [EXO1_Y284_N279S]	1.17	0.833	1.05	1.36	2.63	5.47	2.22	5.86	1.56	4.62	1.69	3.93	1.61	0.784	1.49	1.9
ITNLLYHVVGW [GBA_Y412]	0.998	0.962	0.954	3	5.96	5.73	4.6	7.56	1.18	2.79	6.87	3.59	4.07	2.9	1.32	5.65
YSMGCYEISLE [HMGCL_Y198_G203E]	0.766	0.504	0.564	1.08	1.23	1.01	2.02	1.51	2.01	1.82	0.582	0.907	1.65	0.806	1.35	1.09
IFLENYNAGTY [CFI_Y421_H418L]	0.937	0.668	0.777	0.786	0.543	0.656	0.687	0.403	0.846	0.558	0.481	0.443	0.415	0.665	1.04	0.897
RKKEEYKMAPF [F8_Y1990_L1994P_YF]	1.06	0.407	0.905	0.316	0.373	0.299	0.469	0.422	0.574	0.346	0.602	0.261	0.558	0.371	0.623	0.446
ARGMEYLASKN [FGFR1_Y613_K618N]	1.03	0.524	0.557	0.463	0.337	0.285	0.394	0.355	0.452	0.271	0.407	0.32	0.327	0.385	0.511	0.447
PQGVSYIFTID [DCX_Y103_R102S_YF]	0.902	0.553	1.73	1.48	0.509	0.726	0.486	0.591	0.94	0.495	0.456	0.692	0.729	0.812	1.74	0.893
RLLVVYPWPQR [HBG2_Y36_T39P]	1.8	1.46	1.67	0.617	0.518	0.443	0.456	0.917	0.97	0.512	0.527	0.606	0.489	0.494	1.7	0.703
DIMDLYNQPEL [IL36A_Y96_P101L]	0.764	0.556	0.768	1.11	1.29	0.559	0.99	0.511	1.54	0.589	0.567	0.613	0.932	0.868	1.28	0.943
APTSGYQEFIH [IL4R_Y575_V579I]	0.878	3.98	0.5	0.684	0.461	0.424	0.442	0.429	0.717	0.416	0.572	0.582	0.504	0.527	0.82	0.679
KPSLKYVTFGN [GALNTL5_Y404_G401S_YF]	0.68	0.575	0.697	0.496	0.488	0.453	0.504	0.435	0.736	0.461	0.396	0.453	0.515	0.467	0.75	0.569

More lines, main results first:

SH2 binding enrichment (Grb2 SH2)	SH2 binding enrichment (c-Src SH2)	SH2 binding enrichment (SHP2-C SH2)	Sequence	phosphorylation enrichment (Jak2)	phosphorylation enrichment (Hck)	phosphorylation enrichment (EPHB1)	phosphorylation enrichment (c-Src)	phosphorylation enrichment (MERTK)	phosphorylation enrichment (AncSZ)	phosphorylation enrichment (Fer (mouse))	phosphorylation enrichment (FGFR1)	phosphorylation enrichment (EPHB2)	phosphorylation enrichment (Fyn)	phosphorylation enrichment (c-Abl (mouse))	phosphorylation enrichment (Fes)	phosphorylation enrichment (FGFR3)
0.683	0.483	0.565	FDDIAYIRKTL [PIK3CA_Y1021]	0.835	0.469	0.469	0.449	0.474	0.75	0.411	0.456	0.481	0.514	0.62	0.878	0.496
1.37	0.945	1.15	QLHEHCKIHKE [NSMAF_Y626_Y626C]	0.666	0.649	0.343	0.724	0.629	0.682	0.522	0.745	0.422	0.633	0.728	0.612	0.651
0.695	0.477	0.504	RRAKGYPIYLY [ITGB2_Y125_D128Y]	0.682	0.807	0.44	1.04	0.698	0.997	0.652	0.59	0.624	0.684	0.951	0.922	1.18
0.661	0.538	0.656	EGQKIYIDDNS [PIP4K2A_Y246_N251S]	0.886	0.465	0.499	0.526	0.461	0.862	0.459	0.446	0.549	0.53	0.689	1.09	0.645
0.707	0.588	0.724	TVLWRYTGTRP [UGT1A1_Y337]	0.779	0.557	0.432	0.344	0.317	1.17	0.423	0.495	0.582	0.411	0.633	1.01	0.606
0.898	0.726	0.841	QITQVYGFFDE [PPP2CA_Y127_YF]	1.33	6.92	1.28	8.8	2.32	1.81	1.39	0.836	0.97	14.9	1.06	1.81	1.08
0.828	0.448	0.718	SLTGAYTSGIP [POM121C_Y378]	0.44	0.357	0.299	0.326	0.349	0.443	0.306	0.494	0.393	0.376	0.52	0.533	0.408
0.722	0.859	0.461	VVTGLYEKPSL [KIR3DS1_Y221]	0.623	6.03	4.21	1.05	9.59	1.36	13.2	0.456	7.7	2.3	17.3	0.66	0.537
0.98	0.508	0.58	RAMPVYKEAEH [TP63_Y231_K233E]	0.832	0.664	0.561	0.563	0.503	1.02	0.602	0.763	0.67	0.511	0.665	1.01	0.663
0.952	0.524	0.433	AVARMYGVLPW [PLP1_Y207_D203V]	0.666	3.59	0.411	2.19	0.491	0.689	0.505	0.524	0.644	2.46	0.656	0.866	0.536
0.917	0.425	0.512	LHNLSYQLEAE [PKP2_Y616]	1.37	0.699	0.81	0.646	0.517	1.12	0.605	0.483	0.615	0.393	1.36	1.45	0.934
0.902	0.628	0.735	ACQSLYGGFVE [MVD_Y164_R161Q]	0.775	8.54	0.719	7.59	1.14	0.949	0.744	0.567	1.53	11.1	0.7	0.945	0.665
0.852	0.589	0.975	AEDEDYESVGA [SYKtide_2014]	1.26	0.658	0.815	0.616	0.49	1.29	0.655	0.62	0.672	0.586	0.938	1.44	0.937
0.86	0.666	0.865	DYYDLYGGQKF [PTPN11_Y66_E69Q]	5.14	8.28	8.34	6.47	5.66	2.69	2.32	15.9	8.29	7.93	0.814	1.02	13.5

Reference: the supplement of paper PMC10065799, “High-throughput profiling of sequence recognition by tyrosine kinases and SH2 domains using bacterial peptide display” (eLife, 2023)
